In paper PMC7416497:

Biological target: T1, ETS1 ΔN279 (UniProt P14921 279-441)
T1 sequence: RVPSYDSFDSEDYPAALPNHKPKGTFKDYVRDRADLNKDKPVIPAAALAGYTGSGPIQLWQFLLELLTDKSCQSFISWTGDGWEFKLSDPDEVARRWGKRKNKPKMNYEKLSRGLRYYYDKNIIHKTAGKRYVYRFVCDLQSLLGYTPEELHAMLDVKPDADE
Assay: EMSA

B1: SC1 (dsDNA)
DNA 1: TCGACGGCCAAGCCGGAAGTGAGTGCC
DNA 2: TCGAGGCACTCACTTCCGGCTTGGCCG
Which Kd does the source give for B1 here?
Its Kd is 400 pM.
